Results on two molecules are retold here after patent US20120207760A1 (THERACLONE SCIENCES, published 2012).

Test [1] deals with T1, hemagglutinin (HA) of influenza A/Japan/305/57 H2N2 (Influenza A virus A/Japan/305/1957 …, UniProt P03451 16-562). Kind of test: ELISA, inactivated whole virions coated; transfection supernatant set 5.
For test [2], the target named is T2, hemagglutinin (HA) of influenza A/Solomon Islands/3/06 H1N1 (Influenza A virus A/Solomon …). The test is described as above.
In test [3] the target is T1, hemagglutinin (HA) of influenza …. Briefly: ELISA, inactivated whole virions coated; transfection supernatant set 4. (An ELISA detects its analyte on a solid surface through an enzyme-linked reagent.)
Test [4] deals with T2, hemagglutinin (HA) of influenza …. The test is described as above.
For test [5], the target named is T1, hemagglutinin (HA) of influenza …. Kind of test: ELISA, inactivated whole virions coated; transfection supernatant set 2.
The target of test [6] is T2, hemagglutinin (HA) of influenza …. The description is as above.
Test [7] deals with T1, hemagglutinin (HA) of influenza …. Kind of test: ELISA, inactivated whole virions coated; transfection supernatant set 3.
For test [8], the target named is T2, hemagglutinin (HA) of influenza …. Described as above.
Test [9] deals with T1, hemagglutinin (HA) of influenza …. Kind of test: ELISA, inactivated whole virions coated; transfection supernatant set 1.
The target of test [10] is T2, hemagglutinin (HA) of influenza …. The description is as above.
Test [11] shares this target. Briefly: cell-based or functional assay.

B1: TCN-523 (5248_A17) (antibody, V domains shown)
VH: QVQLVQSGAEVKKPGSSVKVSCKASGGSFSNYAFSWVRQAPGQGLEWMGGTIPLLGTTNYAQKFQGRVTISADQFTSTAYMELGSLRSEDTAVYYCTRRKMTTAFDSWGQGTLVTVSS
VL: QPVLTQPPSASASLGASVTLTCTLSSAYSNYKVDWYQQRPGKGPRFVMRVGTGGIVGSKGDGIPDRFSVLGSGLNRYLTIKNIQEEDESDYHCGADHGSGSNFVSPYVFGGGTKLTVL
For B1, the OD450 was 2.56 OD450 in test [1]; 3.62 OD450 in [2]; 1.73 OD450 in test [3]; 3.43 OD450 in test [4]; 1.39 OD450 in test [5]; 3.67 OD450 in test [6]. Further, the OD450 in test [7] was 3.47 OD450; in test [8], 3.59 OD450; in test [9] it was 1.69 OD450; in [10], 3.59 OD450. The “% Neutralization” value in [11] was 69%.

B2: TCN-504 (3251_K17) (antibody, V domains shown)
VH: QVQLQESGPGLVKPSETLSLTCAVSGVSISNIDFYWGWIRQPPGKGLEWIGNIYYTGITFYNPSLSSRVAISIDTSKNQFSLTLTSVTAADTAMYYCARHYGDSEAINDAFDIWGQGTMLTVSS
VL: EIVMTQSPATLSVSPGERATLSCRASQSVGNSLAWYQQRPGQAPRLLIYGASTRATGIPPRFSGSGSGTEFTLTISSLQTEDFAVYYCQQYINWRPLSFGGGTKVEIK
Consider B2, for which the OD450 in test [1] came to 3.59 OD450; in test [2], 3.6 OD450; in test [3] it was 3.51 OD450; in test [4], 3.52 OD450; in test [5], 3.62 OD450; in [6], 3.65 OD450. Moreover, the OD450 in test [7] stood at 3.64 OD450; in test [8], 3.63 OD450; in test [9], 3.65 OD450; in test [10], 3.65 OD450.
